Numbering of substitutions follows the chain as printed. Names may count otherwise.
Experiments:
[1] = target: the molecule itself; assay: SEC; protein expressed in Rosetta-gami 2 E. coli and purified under nonreducing conditions (no TCEP); Superdex S75 or 200, 20 mM HEPES pH 7.5, 500 mM NaCl, 5% glycerol; dimer checked by SDS-PAGE with or without DTT and by mass spectrometry
[2] = target: the molecule itself; assay: crystal structure; DNA-free crystals; dimer seen between adjacent molecules in the crystal, with an intermolecular disulfide bond; protein purified with TCEP
[3] = target: Etv5 Ets domain (human, UniProt P41161 365-462); assay: X-ray crystallography; 1.95 A; Ca2+ bound near alpha4; EMSA: 50 mM Tris-HCl pH 7.5, 50 mM NaCl, 2 mM MgCl2, 0.01% Tween 20, 5% glycerol, 1 h at room temperature; proteins reduced with 10 mM TCEP unless stated; 10% native PAGE; settings: protein: recombinant; tags: N-terminal His6 removed by TEV (leaves SM); 3' overhang 1 nt on each strand
[4] = target: Etv4 Ets domain (human, UniProt P43268 338-470); assay: X-ray crystallography; 2.8 A; 8 complexes per asymmetric unit; EMSA: 50 mM Tris-HCl pH 7.5, 50 mM NaCl, 2 mM MgCl2, 0.01% Tween 20, 5% glycerol, 1 h at room temperature; proteins reduced with 10 mM TCEP unless stated; 10% native PAGE; settings: protein: recombinant; tags: N-terminal His6 removed by TEV (leaves SM); 3' overhang 1 nt on each strand
[5] = target: Etv1 Y329S-P427S (human, UniProt P50549 326-429, Y329S;P427S); assay: X-ray crystallography; 2.9 A; EMSA: 50 mM Tris-HCl pH 7.5, 50 mM NaCl, 2 mM MgCl2, 0.01% Tween 20, 5% glycerol, 1 h at room temperature; proteins reduced with 10 mM TCEP unless stated; 10% native PAGE; settings: protein: recombinant; tags: N-terminal His6 removed by TEV (leaves SM); blunt
[6] = target: T1, Fev Ets domain (human, UniProt Q99581 42-141); assay: X-ray crystallography; text cites 2YPR for the complex, but Fig. 1 uses 2YPR as Fev and Fig. 7 gives 3ZP5 as Fev-dsDNA; EMSA: 50 mM Tris-HCl pH 7.5, 50 mM NaCl, 2 mM MgCl2, 0.01% Tween 20, 5% glycerol, 1 h at room temperature; proteins reduced with 10 mM TCEP unless stated; 10% native PAGE; settings: protein: recombinant; tags: N-terminal His6 removed by TEV (leaves SM); chain copies: 2; blunt
T1 sequence: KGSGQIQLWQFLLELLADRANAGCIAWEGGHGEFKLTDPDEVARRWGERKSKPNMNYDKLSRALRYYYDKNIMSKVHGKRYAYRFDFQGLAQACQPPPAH

B1: Etv5 Ets domain (amino acids 365-462) (domain or fragment, human, UniProt P41161 365-462, looked up)
chain: RGSLQLWQFLVTLLDDPANAHFIAWTGRGMEFKLIEPEEVARRWGIQKNRPAMNYDKLSRSLRYYYEKGIMQKVAGERYVYKFVCDPDALFSMAFPDN
notes: Etv5 (ERM), Ets domain construct, amino acids 365-462; TEV cleavage leaves SM before the insert; The limits are those told for the crystallisation construct; also called ERM; Etv5 WT; source: E. coli BL21 (DE3) Rosetta-R3, purified with TCEP (Ni-IDA, TEV cleavage, SEC); E. coli Rosetta-gami 2, purified without TCEP; not shown: His6, N-terminal, cleaved
With B1 as the binder, how does the “stoichiometry N” value [1] read?
The value was 2.

B2: Etv1^Y329S-P427S Ets domain (amino acids 326-429) (domain or fragment, human, UniProt P50549 326-429, looked up)
chain: GPTSQRRGSLQLWQFLVALLDDPSNSHFIAWTGRGMEFKLIEPEEVARRWGIQKNRPAMNYDKLSRSLRYYYEKGIMQKVAGERYVYKFVCDPEALFSMAFSDN
notes: Etv1 (Ets translocation variant 1, ER81), Ets domain construct, amino acids 326-429, with two primer-incorporated mutations; A selenomethionine form was used for phasing of the DNA complex; also called PCR mutant Ets domain; ER81; source: E. coli BL21 (DE3) Rosetta-R3, purified (Ni-IDA, TEV cleavage, SEC); not shown: His6, N-terminal, cleaved
Does B2 bind [2]?
Result: binds

B3: Etv1 wild-type Ets domain (amino acids 326-429) (domain or fragment, human, UniProt P50549 326-429, looked up)
chain: B2 chain with S4Y, S102P
notes: Same limits as the crystallised Y329S-P427S construct (PDB 4AVP, 4BNC); TEV cleavage leaves SM before the insert; From Rosetta-gami 2 under nonreducing conditions it is a disulfide-linked dimer; also called WT; WT dimer; source: E. coli BL21 (DE3) Rosetta-R3, purified with TCEP (Ni-IDA, TEV cleavage, SEC); E. coli Rosetta-gami 2, purified without TCEP; not shown: His6, N-terminal, cleaved
B3 was tested. Which “stoichiometry N” value [1] did it give?
Its value is 2.

B4: Etv4 Ets domain (amino acids 338-470) (domain or fragment, human, UniProt P43268 338-470, looked up)
chain: RGALQLWQFLVALLDDPTNAHFIAWTGRGMEFKLIEPEEVARLWGIQKNRPAMNYDKLSRSLRYYYEKGIMQKVAGERYVYKFVCEPEALFSLAFPDNQRPALKAEFDRPVSEEDTVPLSHLDESPAYLPELA
notes: Etv4 (PEA3), Ets domain construct, amino acids 338-470; TEV cleavage leaves SM before the insert; The limits are those told for the crystallised construct; also called PEA3; Etv4 WT; source: E. coli BL21 (DE3) Rosetta-R3, purified with TCEP (Ni-IDA, TEV cleavage, SEC); E. coli Rosetta-gami 2, purified without TCEP; not shown: His6, N-terminal, cleaved
How did the “stoichiometry N” value [1] turn out when B4 was run?
Its value is 2.

B5: Fev Ets domain (amino acids 42-141) (domain or fragment, human, UniProt Q99581 42-141, looked up)
chain: T1 sequence
notes: Fev (Fifth Ewing Variant, PET-1), Ets domain construct, amino acids 42-141; TEV cleavage leaves SM before the insert; also called Fifth Ewing Variant; PET-1; source: E. coli BL21 (DE3) Rosetta-R3, purified (Ni-IDA, TEV cleavage, SEC); not shown: His6, N-terminal, cleaved
Does B5 bind [2]?
Result: binds

B6: 9-bp crystallization duplex with overhangs (dsDNA)
DNA 1: ACCGGAAGTG
DNA 2: ACTTCCGGTC
Does B6 bind [3]?
Result: binds

Does B6 bind [4]?
Result: binds

B7: 10-bp crystallization duplex (dsDNA)
DNA 1: ACCGGAAGTG
DNA 2: CACTTCCGGT
Does B7 bind [5]?
Result: binds

Does B7 bind [6]?
Result: binds

Source: PMC4447949, “Structures of the Ets Protein DNA-binding Domains of Transcription Factors Etv1, Etv4, Etv5, and Fev” (The Journal of Biological Chemistry, 2015)
